Assay results from publication PMC3240630, “Structural Analysis of the UBA Domain of X-linked Inhibitor of Apoptosis Protein Reveals Different Surfaces for Ubiquitin-Binding and Self-Association” (PLoS ONE, 2011).

Legend:
[1] = molecular target: T1, linear-linked diubiquitin (UniProt P0CG48 1-76; P0CG48 1-76); experiment: NMR titration; 15N-labelled XIAP-UBA (0.5 mM, about 0.3 mM at the last point, predominantly monomeric) titrated with unlabelled monoUb (to molar ratio 5.5), K48-Ub2 or LL-Ub2 (to 2.5); 1H-15N HSQC chemical shift perturbation; 298 K; 20 mM BisTris-HCl pH 6.7, 150 mM NaCl, 5 mM DTT; settings: both partners purified
T1 construct: ubiquitin, mature 76-residue protein, first unit; its C-terminal Gly is joined to the N-terminal Met of the next unit; ubiquitin, mature 76-residue protein, second unit; Unlabelled; also called LL-Ub2; linear-linked Ub2

[2] = molecular target: T2, human ubiquitin (mono-ubiquitin) (human, UniProt P0CG48 1-76); experiment: as above; settings: both partners purified
T2 construct: ubiquitin, human, the mature 76-residue protein (C-terminal diglycine Gly75-Gly76); Used unlabelled or 15N-labelled

[3] = molecular target: the molecule itself; experiment: 15N relaxation (rotational correlation time against concentration); 15N-XIAP-UBA at 0.16-1.9 mM; T1 and T2 at 298 K; non-linear fit of the rotational correlation time; dimer to monomers

Kd [1]: 59 ± 11 µM
Kd [2]: 249 ± 19 µM
B1: XIAP-UBA (UBA domain of X-linked inhibitor of apoptosis protein, residues 365-423) (domain or fragment, human, UniProt P98170 365-423, looked up)
chain: RIDDTIFQNPMVQEAIRMGFSFKDIKKIMEEKIQISGSNYKSLEVLVADLVNAQKDSMQ
notes: PDB 2KNA holds the longer construct 357-449; Used 15N- or 13C/15N-labelled or unlabelled; The tags are separated from XIAP-UBA by a thrombin site (LVPRG); also called XIAP UBA domain; XIAP-UBA WT; source: E. coli BL21 (DE3), purified
Kd [3]: ~900 µM
stoichiometry N [3]: 2
